T1: flag-tagged mouse LAP (mouse)
T1 construct: also called recombinant mouse latency associated protein (LAP); mouse latency associated peptide
T1 chain: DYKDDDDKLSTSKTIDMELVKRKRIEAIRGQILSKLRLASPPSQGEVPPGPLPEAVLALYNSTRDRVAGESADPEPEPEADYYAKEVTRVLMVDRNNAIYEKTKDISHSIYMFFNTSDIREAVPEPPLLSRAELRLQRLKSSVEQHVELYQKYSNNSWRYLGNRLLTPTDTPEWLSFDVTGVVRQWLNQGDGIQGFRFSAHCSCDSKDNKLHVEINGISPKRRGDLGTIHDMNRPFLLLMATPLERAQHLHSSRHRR


Key:
mouse mature TGF-beta 1 = molecular target: T2, mouse mature TGF-beta 1 (mouse, UniProt P04202 279-390); experiment: ELISA, plate coated with mouse mature TGF-beta 1, anti-human IgG-HRP detection
T2 construct: mature
Description: (§1) 384-well plate was coated with mouse or human mature TGF-beta 1 for overnight at 4 degree C., and then washed four times with PBS-T. After washing, the plate was blocked with blocking buffer (1×TBS/Tween-20+0.5% BSA+1× Block ace) for at least 1 hour at room temperature, and then washed four times with PBS-T. After washing, an antibody solution was added to the plate and incubated for 2 hours at room temperature, and then washed four times with PBS-T. After washing, diluted secondary antibody (goat anti-human IgG-HRP, Abcam, Cat. ab98624) was added to the plate and incubated for 1 hour at room temperature, and then washed four times with PBS-T. After washing, TMB solution was added to the plate and incubated for 15 minutes at room temperature, then 1N sulfuric acid was added to stop the reaction. The absorbance (optical density; OD) was measured at 450 nm/570 nm.

flag-tagged mouse LAP = molecular target: T1, flag-tagged mouse LAP; experiment: ELISA, plate coated with mouse LAP, anti-human IgG-HRP detection
human mature TGF-beta 1 = molecular target: T3, human mature TGF-beta 1 (human, UniProt P01137 279-390); experiment: ELISA, plate coated with human mature TGF-beta 1, anti-human IgG-HRP detection
T3 construct: mature
Description: as §1

[1] = molecular target: T4, flag-tagged human latent TGF-beta 1 (human, UniProt P01137 34-390); experiment: SPR Biacore 8k, antibody captured by anti-human kappa, latent TGF-beta 1 (SLC) as analyte, 37 C, 1:1 model
T4 construct: Small latent complex: homodimer of LAP and mature TGF-beta 1 held non-covalently; also called human latent TGF-beta 1 (SLC); hSLC
Description: (§2) Mouse anti-human Ig kappa light chain antibody (BD Pharmingen) was immobilized onto all flow cells of a CMS sensor chip using amine coupling kit (GE Healthcare). […] All antibodies and analytes were prepared in ACES pH 7.4 containing 20 mM ACES, 150 mM NaCl, 0.05% Tween 20, 0.005% NaN₃. Assay temperature was set at 37 degrees C. Sensor surface was regenerated each cycle with 10 mM Glycine-HCl, pH2.1. Binding activity was determined by processing and fitting the data to 1:1 binding model using Biacore Insight Software, version 1.1.1.7442 (GE Healthcare).

[2] = molecular target: T5, flag-tagged mouse latent TGF-beta 1 (mouse, UniProt P04202 34-390); experiment: as above
T5 construct: also called mouse latent TGF-beta 1 (SLC); mSLC
Description: as §2

[3] = molecular target: T6, flag-tagged cynomolgus monkey latent TGF-beta 1 (cynomolgus monkey, UniProt P01137 34-390 (human entry), limits assumed); experiment: as above
T6 construct: also called monkey latent TGF-beta 1 (SLC); Cyno latent TGF-beta 1
Description: as §2

T3 sequence (P01137 279-390 limits assumed): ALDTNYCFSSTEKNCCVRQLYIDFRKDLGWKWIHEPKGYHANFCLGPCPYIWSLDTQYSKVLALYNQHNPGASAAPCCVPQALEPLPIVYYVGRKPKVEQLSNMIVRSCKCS

binding result (mouse mature TGF-beta 1) | binding result (flag-tagged mouse LAP) | binding result (human mature TGF-beta 1) | Kd [1] | koff [1] | kon [1] | Kd [2] | koff [2] | kon [2] | Kd [3] | koff [3] | kon [3] | Binder
no binding (tested: 10 ug/mL) | binds | no binding (tested: 10 ug/mL) | 1.13 nM | 0.00043 s⁻¹ | 381000 M⁻¹ s⁻¹ | 1.1 nM | 0.000319 s⁻¹ | 292000 M⁻¹ s⁻¹ | 1 nM | 0.000326 s⁻¹ | 325000 M⁻¹ s⁻¹ | hT0947AE08-SG191 (antibody, IgG1, V domains shown, Humanized, optimized IgG1; also called hT0947AE08-5G191) VH: QVQLVESGGGVVQPGRSLRLSCAASGFTFSSYAMNWIRQPPGKGLEWIGYIYTSGTRYRANWARGRFTISRDNSKNTLYLQMNSLRAEDTAVYYCARGTDIYDYYYWVMDLWGPGTLVTVSS VL: DIQMTQSPSSLSASVGDRVTITCQASQSISTYLAWYQQKPGQPPKLLIYAASTLESGVPSRFSGSGSGTDFTLTISSLQPEDFATYYCQSYSDGDSVGFGQGTKVEIKR
no binding (tested: 10 ug/mL) | binds |  |  |  |  | 1.89 nM |  |  |  |  |  | hT0947AE04-SG191 (antibody, IgG1, V domains shown, Humanized, optimized IgG1) VH: QVQLVESGGGVVQPGRSLRLSCAASGFTFSSYAMNWIRQPPGKGLEWIGYIYTSGTTYHANWARGRFTISRDNSKNTLYLQMNSLRAEDTAVYYCARGTFIWDYYYWVMDLWGPGTLVTVSS VL: DIQMTQSPSSLSASVGDRVTITCQASQSISTYLAWYQQKPGQPPKLLIYKASTLESGVPSRFSGSGSGTDFTLTISSLQPEDFATYYCQSYSDADSVGFGQGTKVEIKR
no binding (tested: 10 ug/mL) | binds | no binding (tested: 10 ug/mL) | 2.15 nM | 0.000727 s⁻¹ | 339000 M⁻¹ s⁻¹ | 1.6 nM | 0.000388 s⁻¹ | 243000 M⁻¹ s⁻¹ | 2.24 nM | 0.000659 s⁻¹ | 294000 M⁻¹ s⁻¹ | hT0947AE09-SG191 (antibody, IgG1, V domains shown, Humanized, optimized IgG1; also called hT0947AE09-5G191; hT0947A09-SG191) VH: QVQLVESGGGVVQPGRSLRLSCAASGFTFSSYAMNWIRQPPGKGLEWIGYIYTSGTRYRANWARGRFTISRDNSKNTLYLQMNSLRAEDTAVYYCARGTDIYDYYYWVMDLWGPGTLVTVSS VL: DIQMTQSPSSLSASVGDRVTITCQASQSISTYLAWYQQKPGQPPKLLIYAASTLESGVPSRFSGSGSGTDFTLTISSLQPEDFATYYCQSYSDADSVGFGQGTKVEIKR

Reference: patent US20210395356A1 (Chugai, published 2021)
